Laboratory results: patent US20250230224A1 (University of California, published 2025)

How the values were obtained:
BoNT/F1 = target: T1, BoNT/F1 (UniProt A7GBG3 1-1278); assay: KinExA, IgG
T1 sequence: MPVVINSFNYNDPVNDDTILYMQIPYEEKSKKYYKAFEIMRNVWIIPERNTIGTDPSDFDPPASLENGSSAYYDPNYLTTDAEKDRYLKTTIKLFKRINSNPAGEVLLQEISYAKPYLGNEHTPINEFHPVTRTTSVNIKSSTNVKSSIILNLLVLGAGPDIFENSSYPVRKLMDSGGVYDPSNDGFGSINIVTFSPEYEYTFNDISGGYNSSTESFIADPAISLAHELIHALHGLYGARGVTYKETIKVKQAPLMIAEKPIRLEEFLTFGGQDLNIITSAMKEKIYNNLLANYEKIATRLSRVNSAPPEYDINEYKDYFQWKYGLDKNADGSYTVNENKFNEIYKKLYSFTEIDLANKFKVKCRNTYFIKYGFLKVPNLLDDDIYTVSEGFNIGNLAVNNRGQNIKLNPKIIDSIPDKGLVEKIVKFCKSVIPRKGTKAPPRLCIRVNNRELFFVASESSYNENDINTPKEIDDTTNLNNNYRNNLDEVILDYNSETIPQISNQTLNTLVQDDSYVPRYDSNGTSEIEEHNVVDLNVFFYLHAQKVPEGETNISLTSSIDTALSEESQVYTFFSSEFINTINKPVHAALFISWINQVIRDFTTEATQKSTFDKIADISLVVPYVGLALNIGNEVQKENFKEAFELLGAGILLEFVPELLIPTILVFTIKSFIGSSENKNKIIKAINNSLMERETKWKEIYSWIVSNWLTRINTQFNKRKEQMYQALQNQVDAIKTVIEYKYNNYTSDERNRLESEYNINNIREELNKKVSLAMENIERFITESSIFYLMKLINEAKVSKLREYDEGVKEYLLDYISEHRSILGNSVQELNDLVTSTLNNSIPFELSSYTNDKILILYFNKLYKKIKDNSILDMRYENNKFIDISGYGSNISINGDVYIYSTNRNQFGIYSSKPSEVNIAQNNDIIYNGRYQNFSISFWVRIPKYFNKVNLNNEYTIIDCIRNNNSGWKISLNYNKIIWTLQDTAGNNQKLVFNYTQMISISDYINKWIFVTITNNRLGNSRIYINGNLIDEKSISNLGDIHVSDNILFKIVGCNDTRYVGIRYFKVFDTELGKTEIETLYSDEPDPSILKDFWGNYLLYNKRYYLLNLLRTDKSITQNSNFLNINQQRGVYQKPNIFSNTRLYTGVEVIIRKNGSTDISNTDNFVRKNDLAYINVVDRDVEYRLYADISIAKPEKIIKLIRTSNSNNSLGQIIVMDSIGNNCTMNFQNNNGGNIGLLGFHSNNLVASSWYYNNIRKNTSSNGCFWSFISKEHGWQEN

[1] = target: T2, Botulinum neurotoxin serotype C (BoNT/C) (Clostridium botulinum, UniProt P18640 2-1291); assay: KinExA flow fluorimetry, solution phase, IgG
T2 sequence: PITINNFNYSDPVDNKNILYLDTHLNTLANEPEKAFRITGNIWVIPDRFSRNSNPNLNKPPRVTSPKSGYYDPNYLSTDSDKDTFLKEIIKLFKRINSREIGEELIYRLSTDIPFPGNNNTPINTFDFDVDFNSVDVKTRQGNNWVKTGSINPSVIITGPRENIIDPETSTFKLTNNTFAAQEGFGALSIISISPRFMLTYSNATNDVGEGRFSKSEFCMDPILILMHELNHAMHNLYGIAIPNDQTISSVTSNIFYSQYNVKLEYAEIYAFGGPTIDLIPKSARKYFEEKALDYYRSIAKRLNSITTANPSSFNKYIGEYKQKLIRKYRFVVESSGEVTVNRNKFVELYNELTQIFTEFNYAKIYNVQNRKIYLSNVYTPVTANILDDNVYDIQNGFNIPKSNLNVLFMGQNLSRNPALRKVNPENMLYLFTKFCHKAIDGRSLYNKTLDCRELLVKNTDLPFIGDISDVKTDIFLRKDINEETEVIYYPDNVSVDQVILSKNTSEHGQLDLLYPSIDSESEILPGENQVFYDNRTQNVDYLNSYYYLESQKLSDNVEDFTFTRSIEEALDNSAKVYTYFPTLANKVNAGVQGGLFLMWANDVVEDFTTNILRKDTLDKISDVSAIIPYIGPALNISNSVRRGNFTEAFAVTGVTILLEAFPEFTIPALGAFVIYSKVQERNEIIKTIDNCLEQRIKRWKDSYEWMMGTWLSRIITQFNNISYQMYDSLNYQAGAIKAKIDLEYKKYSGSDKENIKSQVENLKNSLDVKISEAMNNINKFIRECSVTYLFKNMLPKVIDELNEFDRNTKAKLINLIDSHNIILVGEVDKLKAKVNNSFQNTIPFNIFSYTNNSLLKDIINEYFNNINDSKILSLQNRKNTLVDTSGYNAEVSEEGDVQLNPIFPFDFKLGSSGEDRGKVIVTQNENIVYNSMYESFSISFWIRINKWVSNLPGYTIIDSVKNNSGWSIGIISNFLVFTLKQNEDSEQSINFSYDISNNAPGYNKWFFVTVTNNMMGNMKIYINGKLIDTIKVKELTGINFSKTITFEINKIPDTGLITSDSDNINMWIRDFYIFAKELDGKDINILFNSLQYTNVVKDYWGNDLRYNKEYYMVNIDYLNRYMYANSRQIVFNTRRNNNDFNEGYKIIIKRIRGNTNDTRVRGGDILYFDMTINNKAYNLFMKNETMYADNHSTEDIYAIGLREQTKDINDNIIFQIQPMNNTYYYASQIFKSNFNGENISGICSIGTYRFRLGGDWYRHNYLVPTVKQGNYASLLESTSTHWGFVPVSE

[2] = target: Mosaic botulinum neurotoxin BoNT/DC (Clostridium botulinum); assay: KinExA flow fluorimetry, solution phase, IgG
[3] = target: T3, Botulinum neurotoxin serotype D (BoNT/D) (Clostridium botulinum, UniProt P19321 2-1276); assay: KinExA flow fluorimetry, solution phase, IgG
T3 sequence: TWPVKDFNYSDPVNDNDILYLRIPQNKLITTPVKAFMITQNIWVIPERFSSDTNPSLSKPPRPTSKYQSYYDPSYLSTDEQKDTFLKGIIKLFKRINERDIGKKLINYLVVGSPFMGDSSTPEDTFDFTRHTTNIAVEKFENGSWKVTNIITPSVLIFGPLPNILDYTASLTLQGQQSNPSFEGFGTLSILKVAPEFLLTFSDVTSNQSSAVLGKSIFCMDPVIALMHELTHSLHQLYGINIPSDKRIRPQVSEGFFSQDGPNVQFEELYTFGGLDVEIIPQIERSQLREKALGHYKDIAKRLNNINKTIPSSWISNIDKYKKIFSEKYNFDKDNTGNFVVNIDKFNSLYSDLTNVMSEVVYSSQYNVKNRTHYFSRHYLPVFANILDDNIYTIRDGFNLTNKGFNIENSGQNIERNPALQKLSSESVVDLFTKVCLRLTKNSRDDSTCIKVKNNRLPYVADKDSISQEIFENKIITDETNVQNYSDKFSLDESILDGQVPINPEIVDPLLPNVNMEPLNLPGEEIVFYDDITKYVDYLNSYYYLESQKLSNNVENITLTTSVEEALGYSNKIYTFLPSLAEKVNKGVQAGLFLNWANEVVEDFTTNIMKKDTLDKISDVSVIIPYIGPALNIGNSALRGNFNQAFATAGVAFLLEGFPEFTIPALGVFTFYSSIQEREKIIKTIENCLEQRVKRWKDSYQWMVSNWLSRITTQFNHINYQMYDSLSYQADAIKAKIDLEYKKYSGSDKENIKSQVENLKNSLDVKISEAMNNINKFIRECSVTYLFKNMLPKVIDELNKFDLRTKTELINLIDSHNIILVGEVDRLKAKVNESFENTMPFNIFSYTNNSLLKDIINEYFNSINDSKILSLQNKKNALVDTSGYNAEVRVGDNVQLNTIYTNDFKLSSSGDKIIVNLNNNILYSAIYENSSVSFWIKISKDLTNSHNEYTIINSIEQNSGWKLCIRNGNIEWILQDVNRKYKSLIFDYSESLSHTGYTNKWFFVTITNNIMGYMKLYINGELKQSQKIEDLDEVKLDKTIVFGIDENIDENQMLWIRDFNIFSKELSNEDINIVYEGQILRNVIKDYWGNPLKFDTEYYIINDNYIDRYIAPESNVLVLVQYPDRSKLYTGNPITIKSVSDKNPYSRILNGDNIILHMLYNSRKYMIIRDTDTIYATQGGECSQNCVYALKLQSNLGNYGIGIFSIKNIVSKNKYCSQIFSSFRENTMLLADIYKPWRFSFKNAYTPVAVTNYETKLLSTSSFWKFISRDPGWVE

B1: Hu6F13.4 IgG (antibody, V domains shown)
VH: QVQLVQSGAEVKKPGASVKVSCKASGYSFTSYWMHWVRQAPGQGLEWIGFINPINGGIIYNEKFRFRATLTVDTSISTAYMELSRLRSDDTAVYYCARAGYYGSSRHFDVWGQGTLLTVSS
VL: ETTLTQSPSSLSASVGDRVTITCRASQGIRNYLAWYQQKPGKAPKLLIYDASNLETGVPSRFSGSGSGTDFTFTISSLQPEDFATYYCLQTSSTPWTFGQGTKVDIKR
- Kd (BoNT/F1): 0.173 nM

B2: 6F5.4 IgG (antibody, V domains shown)
VH: EVQLVPSGGNLVQPGGSLRLSCAATGPIDYHWMTWVRQAPGQGLEWVANINLDGTEKFYVDSVKGRFTVSRDNRKSSVFLQMNNLRVDDTAVYYCARLQWGERDGWLSPWGQGTLVTVSS
VL: DIVMTQSPPSLSASVGDRVRLTCRASQSIGRSLNWYQQKPGKAPKLLIYDASALHSGVPSRFSGSGSGTDFTLTISGLQPEDFATYYCQQTNDLPVTFGGGTKLEIKR
- Kd (BoNT/F1): 0.0149 nM

B3: 4C4 IgG (antibody, V domains shown)
VH: QVQLVESGPGLVKPSQTLSLTCSVSGASINNSPYFWNWFRQFPGKGLEWIGYIYWSGSTNYNPSLKSRLAMSVDTSKNQFSLKLTSATAADTAVYYCARDQGGGTVVKENWFDPWGQGTLVTVSS
VL: DIVMTQSPSSLSASVGDRLTMTCQASQDIGKHLNWYQQKAGKPPKLLIYGASNLKTGVPSRFSAGVSWTDFTFTISNVQPEDVATYYCQQSYSTPPTFGQGTKVEIK
- Kd [1]: 0.888 nM
- Kd [2]: 0.597 nM

B4: 4C4.2 IgG (antibody, V domains shown)
VH: QVQLVESGPGLVKPSQTLSLTCSVSGASINNSPYFWNWFRQFPGKGLEWIGYIYWSGSTNYNPSLKSRLAMSVDTSKNQFSLKLTSATAADTAVYYCARDQGGGTVVKENWFDPWGQGTLVTVSS
VL: DIQMTQSPSTLSASVGDRVTITCRASQSIGTYLNWYQQKPGRAPTLLVSRTSNLHTGVPSRFSGDGSGSHFSLTIDSLQPEDFATYYCQQSHTSPVTFGQGTKVEIK
- Kd [3]: 0.254 nM
- Kd [1]: 0.035 nM
- Kd [2]: 0.126 nM

B5: 4C4.4 IgG (antibody, V domains shown)
VH: QVQLQESGPGLVKPSQTLSLTCTVSGASISNSPYFWNWFRQFPGKGLEWIGYIYWSGSTNYNPSLKSRLAMSVDTSKNQFSLKLTSATAADTAVYYCARDQGGGTVVKENWFDPWGQGTLVTVSS
VL: DIVMTQSPSSLSASVGDRLTMTCQASQDIGKHLNWYQQKAGKPPKLLIYGASNLKTGVPSRFSAGVSWTDFTFTISNVQPEDVATYYCQQSYSTPPTFGQGTKVEIKR
- Kd [1]: 0.016 nM

B6: 4C4.1 IgG (antibody, V domains shown)
VH: QVQLVESGPGLVKPSQTLSLTCSVSGASINNSPYFWNWFRQFPGKGLEWIGYIYWSGSTNYNPSLKSRLAMSVDTSKNQFSLKLTSATAADTAVYYCARDQGGGTVVKENWFDPWGQGTLVTVSS
VL: ETTLTQSPSSLSASVGDRVSITCRASQSISNYLNWYQQKPGKAPKLLIYAASSLQSGVPSRFSGSGSGTDFTLTISSLQPEDFATYYCQQSYSDPPTFGQGTKVEIK
- Kd [3]: 0.898 nM
- Kd [1]: 0.57 nM
- Kd [2]: 0.058 nM

B7: 8DC4.1 IgG (antibody, V domains shown)
VH: QVQLQESGPGLVKPSQTLSLTCTVSGGSISSDNYFWTWIRQSPGKGLEWLGHISYSGRSYTNLSLKRRLTISVDTSKNQFSLNLNSVTAADTAVYYCARERLPPGRGYDMDVWGQGTTVTVSS
VL: not shown
- Kd [3]: 1.4 nM
- Kd [1]: 1.4 nM
- Kd [2]: 1.4 nM

B8: 8DC4.4 IgG (antibody, V domains shown)
VH: QVQLQESGPGLVKPSQTLSLTCTVSGGSISSDNYFWTWIRQSPGKGLEWLGHISYSGRSYTNLSLKRRLTISVDTSKNQFSLNLNSVTAADTAVYYCARERLPPGRGYDMDVWGQGTTVTVSS
VL: DIVMTQSPSSVSASVGDRVTITCRASRDISIYLNWYQQKPGKAPKLLIYAASNLETGVPSRFSGSGSGTDFTLTISSLQPEDVATYYCQQSYNTPLTFGGGTKLEIKR
- Kd [3]: 0.157 nM
- Kd [1]: 0.136 nM

B9: Hu6F11 IgG (antibody, V domains shown)
VH: EVQLVESGGGLVKPGGSLRLSCAASGFTFSNYGMSWVRQAPGKGLEWVASISSGGSYIYYPDSVKGRFTISRDNAKNSLYLQMNSLRAEDTAVYYCARRKGYDSLYWYFDVWGQGTLVTVSS
VL: DVVMTQSPSSLSAFVGDRVTITCRASQGIRSYLAWFQQKPGKAPKLLIYAASTLQSGVPSRFSGSGSGTEFTLTVSGLQPEDFATYYCQQYNSYPLTFGGGTRLEIKR
- Kd (BoNT/F1): 0.00071 nM
